Paper PMC7406681, “Structural characterization of the C-terminal domain of SARS-CoV-2 nucleocapsid protein”

Legend:
[1] = target: T1, SARS-CoV-2 nucleocapsid C-terminal domain (N-CTD) (SARS-CoV-2 (Wuhan-Hu-1), UniProt P0DTC9 248-364); assay: EMSA; details: protein: recombinant; tags: N-terminal His6 removed by TEV; residual Gly-Ala-Ser at N-terminus; chain copies: 2
[2] = target: T1, SARS-CoV-2 nucleocapsid C-terminal …; assay: EMSA; N-CTD:DNA molar ratios 2:1 to 10:1; details: protein: recombinant, tags: N-terminal His6 removed by TEV, residual Gly-Ala-Ser at N-terminus, chain copies: 2

UGUUCUCUAAACGAACU (ssRNA) [17-mer ssRNA (5' UTR SL3/TRS)]
binding result [1]: binds

TGTTCTCTAAACGAACT (ssDNA) [17-mer ssDNA (DNA mimic of SL3/TRS RNA)]
binding result [2]: binds

B1: 17-bp dsDNA (DNA mimic of SL3/TRS RNA) (dsDNA)
DNA 1: TGTTCTCTAAACGAACT
DNA 2: AGTTCGTTTAGAGAACA
binding result ([2]; blunt): binds
